Residue numbers refer to the chain shown, from its start. Read-outs that look alike come from different tables or passages of the source. Bounds are passed on as bounds.

Test [1] deals with cynomolgus C-KIT on stably transfected CHO-K1 cells (cynomolgus monkey). The test is described as follows: cell-based or functional assay.
The target of test [2] is T1, cynomolgus monkey C-KIT-Fc protein (cynomolgus monkey).
T1 construct: also called cyno C-KIT-Fc; cyno C-KIT
The test is described as follows: HTRF competition vs terbium-labelled h37M IgG1.

The target in test [3] is T1, cynomolgus monkey C-KIT-Fc protein. The experiment in a line: direct ELISA, IgG at 1 µg/ml.
Test [4] shares this target. The experiment in a line: HTRF competition vs terbium-labelled h37M IgG1. This is another data set of the same source.
For test [5], the target named is T2, human FcγRIIb, His6-tagged (human, UniProt P31994 43-217).
T2 construct: also called FcG RIIb
T2 sequence (looked up): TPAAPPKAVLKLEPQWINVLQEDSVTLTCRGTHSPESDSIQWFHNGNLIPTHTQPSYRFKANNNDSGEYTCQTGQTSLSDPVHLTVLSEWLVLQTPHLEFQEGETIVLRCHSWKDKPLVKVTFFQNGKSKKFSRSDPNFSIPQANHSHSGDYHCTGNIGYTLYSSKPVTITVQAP
The test is described as follows: SPR, steady state. The protocol: (§1) Interaction affinities for IgGs were determined by surface plasmon resonance using a BIACORE® T200 instrument. For most analyses, His6-tagged FcγRI, FcγRIIa (167R and 167H variants), FcγRIIb, FcγRIIIa (176F and 176 V variants), and FcγRIIIb receptors (all Sino Biological) were captured on a CM5 sensor chip coated with an anti-HIS antibody by standard amine coupling. Receptor-specific formats of analyses were then applied, as below.

For test [6], the target named is T3, human FcγRIIIa 176V variant, His6-tagged (human, UniProt P08637 17-208).
T3 construct: also called FcG RIIIa (176V)
The experiment in a line: SPR, steady state. The protocol:
as §1

For test [7], the target named is T4, human FcγRIIa 167R variant, His6-tagged (human, UniProt P12318 34-218).
T4 construct: also called FcG RIIa (167R)
T4 sequence (looked up): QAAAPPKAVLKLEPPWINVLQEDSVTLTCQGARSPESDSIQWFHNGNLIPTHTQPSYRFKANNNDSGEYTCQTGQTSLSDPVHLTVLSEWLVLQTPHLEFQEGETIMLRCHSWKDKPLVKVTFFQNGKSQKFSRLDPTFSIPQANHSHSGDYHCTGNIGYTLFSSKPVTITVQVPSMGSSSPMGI
The test is described as follows: SPR, steady state. The protocol: as §1

Test [8] concerns the target T5, human FcγRIIIa 176F variant, His6-tagged (human, UniProt P08637 17-208).
T5 construct: also called FcG RIIIa (176F)
The test is described as follows: SPR, steady state. As for the experimental part:
as §1

The target in test [9] is T6, human FcγRIIa 167H variant, His6-tagged (human, UniProt P12318 34-218).
T6 construct: also called FcG RIIa (167H)
T6 sequence (looked up): T4 sequence (looked up) with R134H
The test is described as follows: SPR, steady state. The protocol: as §1

Test [10] concerns the target T7, human FcγRIIIb, His6-tagged (human, UniProt O75015 17-200).
T7 construct: also called FcG RIIIb
The experiment in a line: SPR, steady state. As for the experimental part:
as §1

The next test has as its target T8, human FcRn (human, UniProt P55899 24-297, limits assumed).
T8 construct: also called hFcRn
The experiment in a line: SPR, steady state, pH 6. As for the experimental part: The interactions between monomeric IgG and FcRn are relatively low affinity and pH-sensitive interactions, so ‘steady state’ affinity analyses were performed under the following conditions: A CM5 chip was directly coupled with hFcRn in sodium acetate pH 5.5 using standard amine chemistry. Running buffer was PBS 0.05% P20+150 mM NaCl (pH 6.0 or pH 7.4), flow rate 30 μl/min, 5 point three-fold dilutions of purified antibodies from 3000 nM to 37.0 nM applied with an association time of 18s, dissociation time 100 s.

A further test has as its target T9, human FcγRI, His6-tagged (human, UniProt P12314 16-288).
T9 construct: also called FcG RI
The test is described as follows: SPR, 1:1 kinetic. As for the experimental part: as §1
Regeneration with 2× injections glycine pH 1.5 and analysis using 1:1 fit.

T5 sequence (P08637 17-208 limits assumed, change not shown): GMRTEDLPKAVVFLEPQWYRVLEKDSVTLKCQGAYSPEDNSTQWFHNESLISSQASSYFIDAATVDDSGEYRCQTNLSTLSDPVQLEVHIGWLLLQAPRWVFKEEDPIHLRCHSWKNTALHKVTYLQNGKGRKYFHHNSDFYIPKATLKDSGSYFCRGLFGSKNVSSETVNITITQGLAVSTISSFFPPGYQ
T8 sequence (P55899 24-297 limits assumed, form in doubt): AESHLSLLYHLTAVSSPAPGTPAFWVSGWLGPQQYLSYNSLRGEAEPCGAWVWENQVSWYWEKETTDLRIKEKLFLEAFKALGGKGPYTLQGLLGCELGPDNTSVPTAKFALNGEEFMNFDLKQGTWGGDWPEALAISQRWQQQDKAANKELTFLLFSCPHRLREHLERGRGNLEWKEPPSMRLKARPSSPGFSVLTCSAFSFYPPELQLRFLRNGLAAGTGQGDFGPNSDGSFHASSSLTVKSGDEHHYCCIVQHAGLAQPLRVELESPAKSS
T7 sequence (O75015 17-200 limits assumed): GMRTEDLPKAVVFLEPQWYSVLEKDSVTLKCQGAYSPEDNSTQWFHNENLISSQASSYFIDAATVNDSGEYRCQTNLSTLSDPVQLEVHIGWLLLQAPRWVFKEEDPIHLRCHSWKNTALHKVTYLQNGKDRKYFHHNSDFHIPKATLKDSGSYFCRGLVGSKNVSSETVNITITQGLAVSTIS
T9 sequence (P12314 16-288 limits assumed): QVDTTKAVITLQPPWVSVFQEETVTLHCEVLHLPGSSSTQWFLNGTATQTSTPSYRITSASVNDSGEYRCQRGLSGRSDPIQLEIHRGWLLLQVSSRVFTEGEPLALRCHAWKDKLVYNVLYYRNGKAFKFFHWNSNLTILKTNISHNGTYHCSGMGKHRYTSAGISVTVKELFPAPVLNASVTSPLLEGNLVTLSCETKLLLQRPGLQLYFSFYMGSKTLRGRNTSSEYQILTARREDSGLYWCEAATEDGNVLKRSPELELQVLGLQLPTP
T3 sequence (P08637 other isoform, or with tags, fused parts or gaps mutant limits assumed): as the sequence (P08637 17-208 limits assumed, change not shown) above, with F160V counted along it

B1: MH1 IgG1-3M (antibody, V domains shown)
VH: QVQLVQSGAEVKKPGASVKVSCKASGYTFTDYYMNWVRQAPGQGLEWMGRIYPGSGNTYYAQKFQGRVTMTRDTSTSTVYMELSSLRSEDTAVYYCARGVYYYDYWGQGTLVTVSS
VL: DIQMTQSPSSLSASVGDRVTITCRASQGIRTNLAWFQQKPGKAPKSLIYAASSLQSGVPSRFSGSGSGTDFTLTISSLQPEDFATYYCQQYNSYPRTFGGGTKVEIK
As for B1, the “Cyno C-KIT CHO FabZAP IC50 (pM)” value in [1] was determined as 14 pM.

B2: MH5-DI IgG1-3M (antibody, V domains shown)
VH: B1 VH
VL: B1 VL with N92A, S93N
Turning to B2, the “Cyno C-KIT CHO FabZAP IC50 (pM)” value in test [1] stood at 13.5 pM.

B3: E-C7 (antibody, human IgG1, V domains shown)
VH: B1 VH
VL: B1 VL with A50S
notes: human IgG1; also called C-KIT-E-C7
As for B3, the IC50 in test [2] turned out to be 0.051 µg/mL. Also, the OD450 nm in [3] was above 2 OD450 nm.

B4: MH5.22 (antibody, human IgG1, V domains shown)
VH: B1 VH with Y32F, G54A, Y101W
VL: B1 VL with N92A, S93N
notes: graft frameworks; substitutions derived; human IgG1; also called C-KIT-MH5.22
B4 returned an OD450 nm in test [3] above 2 OD450 nm. This molecule also displayed an IC50 in test [4] of 0.164 µg/mL.

B5: MH5.34 (antibody, human IgG1, V domains shown)
VH: B1 VH with D31N, G54A, Y101W, Y103F, Y105S
VL: B1 VL with N92A, S93N
notes: graft frameworks; substitutions derived; human IgG1; also called C-KIT-MH5.34
Turning to B5, the IC50 in test [4] is 0.532 µg/mL.

B6: MH5.1 (antibody, human IgG1, V domains shown)
VH: B1 VH with D31N, S55T, Y101W
VL: B1 VL with N92A, S93N
notes: graft frameworks; substitutions derived; human IgG1; also called C-KIT-MH5.1
In test [4], B6 came in with an IC50 of 0.633 µg/mL.

B7: D-A10 (antibody, human IgG1, V domains shown)
VH: B1 VH with Y103F, Y105T
VL: B1 VL with I29V, L54R
notes: graft frameworks; substitutions derived; human IgG1; also called C-KIT-D-A10
In [2], B7 displayed an IC50 of 0.059 µg/mL.

B8: F-F2 (antibody, human IgG1, V domains shown)
VH: B1 VH with Y103Q
VL: B1 VL with I29V, L33V, L54R
notes: graft frameworks; substitutions derived; human IgG1; also called C-KIT-F-F2
In turn, B8 had an IC50 in test [2] of 0.121 µg/mL.

B9: E-C2 (antibody, human IgG1, V domains shown)
VH: B1 VH with Y103L
VL: B1 VL with L33V, F36L, A50S, S53Y, L54R
notes: human IgG1; also called C-KIT-E-C2
In the case of B9, the OD450 nm in [3] was above 2 OD450 nm.

B10: C-B12 (antibody, human IgG1, V domains shown)
VH: B1 VH with Y102E, Y103F
VL: B1 VL with I29V, T31N, S53Y, L54R
notes: graft frameworks; substitutions derived; human IgG1; also called C-KIT-C-B12
B10 gave an IC50 in test [2] of 0.166 µg/mL.

B11: C-A7 (antibody, human IgG1, V domains shown)
VH: B1 VH with M48I, Y103F, Y105S
VL: B1 VL with I29V, T31N, L33V, A50Y
notes: graft frameworks; substitutions derived; human IgG1; also called C-KIT-C-A7
B11: the 50% inhibitory concentration (IC50) in [2] was found to be 0.081 µg/mL.

B12: MH5.23 (antibody, human IgG1, V domains shown)
VH: B1 VH with Y32F, G54A, Y101W, Y103F, Y105S
VL: B1 VL with N92A, S93N
notes: graft frameworks; substitutions derived; human IgG1; also called C-KIT-MH5.23
Molecule B12 showed an IC50 in test [4] of 3.26 µg/mL.

B13: MH11 (antibody, human IgG1, V domains shown)
VH: B1 VH
VL: B1 VL with S93A
notes: graft frameworks; substitutions derived; human IgG1; also called C-KIT-MH11
In test [2], B13 came in with an IC50 of 0.101 µg/mL.

B14: MH5.2 (antibody, human IgG1, V domains shown)
VH: B1 VH with Y32F, S55T, Y101W
VL: B1 VL with N92A, S93N
notes: graft frameworks; substitutions derived; human IgG1; also called C-KIT-MH5.2
For B14, the IC50 in test [4] came out at 0.254 µg/mL.

B15: MH5.35 (antibody, human IgG1, V domains shown)
VH: B1 VH with D31N, G54A, Y101W, Y103F, Y105T
VL: B1 VL with N92A, S93N
notes: graft frameworks; substitutions derived; human IgG1; also called C-KIT-MH5.35
B15 returned an IC50 in [4] of 0.785 µg/mL.

B16: F-C5 (antibody, human IgG1, V domains shown)
VH: B1 VH with Y103F, Y105E
VL: B1 VL with I29V, L54R
notes: human IgG1; also called C-KIT-F-C5
On to B16, for which the IC50 in [2] is 0.079 µg/mL.

B17: E-E10 (antibody, human IgG1, V domains shown)
VH: B1 VH with Y101W, Y103F
VL: B1 VL with I29V, L33V, A50S
notes: graft frameworks; substitutions derived; human IgG1; also called C-KIT-E-E10
B17 showed an IC50 in test [2] of 0.097 µg/mL.

B18: MH1 IgG1 (antibody, V domains shown)
VH: B1 VH
VL: B1 VL
notes: human IgG1; also called IgG1-MH1; C-KIT-MH1
The molecule B18 gave an OD450 nm in test [3] above 2 OD450 nm.

B19: MH5 IgG1 (antibody, V domains shown)
VH: B1 VH
VL: B1 VL with A50S, N92A, S93N
notes: human IgG1; also called C-KIT-MH5
Regarding B19, the results for the IC50 in [2] and in test [4] were 0.036 µg/mL and 0.058 µg/mL, respectively. In test [3], this molecule gave an OD450 nm above 2 OD450 nm.

B20: MH5.24 (antibody, human IgG1, V domains shown)
VH: B1 VH with Y32F, G54A, Y101W, Y103F, Y105T
VL: B1 VL with N92A, S93N
notes: graft frameworks; substitutions derived; human IgG1; also called C-KIT-MH5.24
As for B20, the IC50 in test [4] worked out at 2.74 µg/mL.

B21: h37M IgG1 (antibody)
heavy: not shown
VL: DIVMTQSPSSLSASVGDRVTITCKASQNVRTNVAWYQQKPGKAPKALIYSASYRYSGVPDRFTGSGSGTDFTLTISSLQPEDFADYFCQQYNSYPRTFGGGTKVEIK
notes: Humanized 37M, human IgG1; Terbium-labelled as tracer in HTRF; also called C-KIT-h37M; IgG1-h37M; copies: 2 + 2
As for B21, the IC50 was found to be 0.035 µg/mL in [2] and 0.036 µg/mL in [4]. Also, the Kd came out at 1440 nM in test [5]; 41.1 nM in test [6]; 447 nM in [7]; 82 nM in test [8]; 512 nM in [9]; 249 nM in test [10]. For the same molecule, the Kd in the test with human FcRn is 1240 nM; with human FcγRI, His6-tagged, 1.06 nM. Moreover, the OD450 nm in test [3] was above 2 OD450 nm.

(Values after patent publication US20230212285A1 (published 2023).)
